Legend:
Assay in all cases: stopped-flow fluorescence anisotropy
Conditions in all cases: T17 carries SIMA; Kd: 5 mM Tricine-KOH pH 8.0, 100 mM KCl, 3.4 mM MgCl2, 0.1 mM each dNTP, 0.01% Tween 20, 20 nM hairpin, 55 C (SYTO 13 1/5000 listed in the shared buffer)
Taq pol E708D E708D = Taq pol E708D E708D (UniProt P19821)
[1] = biological target: Taq pol D578S-R728Q-M747Q D578S;R728Q;M747Q (UniProt P19821)
Taq pol R660V R660V = Taq pol R660V R660V (UniProt P19821)
Taq pol S515F S515F = Taq pol S515F S515F (UniProt P19821)
Taq pol F667Y F667Y = Taq pol F667Y F667Y (UniProt P19821)
[2] = biological target: Taq pol S515D-K540M S515D;K540M (UniProt P19821)
[3] = biological target: Taq pol D578Q-D732N D578Q;D732N (UniProt P19821)
[4] = biological target: Taq pol D578S-R728Q-M747V D578S;R728Q;M747V (UniProt P19821)
[5] = biological target: Taq pol F667I-R728N-M747S F667I;R728N;M747S (UniProt P19821)
Taq pol E507K E507K = Taq pol E507K E507K (UniProt P19821)
[6] = biological target: Taq pol V586N-M747T V586N;M747T (UniProt P19821)
Taq pol D578N D578N = Taq pol D578N D578N (UniProt P19821)
Taq pol M747Q M747Q = Taq pol M747Q M747Q (UniProt P19821)
[7] = biological target: Taq pol E507Q-S515N-D578S E507Q;S515N;D578S (UniProt P19821)
[8] = biological target: Taq pol E507K-R536K-R660V E507K;R536K;R660V (UniProt P19821)
Taq pol E708L E708L = Taq pol E708L E708L (UniProt P19821)
[9] = biological target: Taq pol E507K-D732N E507K;D732N (UniProt P19821)
Taq pol D578K D578K = Taq pol D578K D578K (UniProt P19821)
Taq pol M747D M747D = Taq pol M747D M747D (UniProt P19821)
[10] = biological target: Taq pol E507R-R573K-E708Q E507R;R573K;E708Q (UniProt P19821)
[11] = biological target: Taq pol R573K-D578N R573K;D578N (UniProt P19821)
[12] = biological target: Taq pol D578H-M747Q D578H;M747Q (UniProt P19821)
Taq pol H639A H639A = Taq pol H639A H639A (UniProt P19821)
[13] = biological target: Taq pol E507Q-D578S-R728Q E507Q;D578S;R728Q (UniProt P19821)
[14] = biological target: Taq pol E708Q-D732N E708Q;D732N (UniProt P19821)
Taq pol I707L I707L = Taq pol I707L I707L (UniProt P19821)
[15] = biological target: Taq pol S515N-M747S S515N;M747S (UniProt P19821)
Taq pol E626K E626K = Taq pol E626K E626K (UniProt P19821)
[16] = biological target: Taq pol E742K-A743R E742K;A743R (UniProt P19821)
Taq pol S515D S515D = Taq pol S515D S515D (UniProt P19821)
[17] = biological target: Taq pol E507Q-D578S-I614M E507Q;D578S;I614M (UniProt P19821)
Taq pol R660S R660S = Taq pol R660S R660S (UniProt P19821)
Taq pol WT = Taq pol WT (UniProt P19821)
[18] = biological target: Taq pol E507K-A570T-M747Q E507K;A570T;M747Q (UniProt P19821)
Taq pol S515N S515N = Taq pol S515N S515N (UniProt P19821)
Taq pol M747E M747E = Taq pol M747E M747E (UniProt P19821)
Taq pol D732N D732N = Taq pol D732N D732N (UniProt P19821)
[19] = biological target: Taq pol E507K-D578E E507K;D578E (UniProt P19821)
Taq pol F667M F667M = Taq pol F667M F667M (UniProt P19821)
Taq pol D578W D578W = Taq pol D578W D578W (UniProt P19821)
[20] = biological target: Taq pol E507K-A570G-M747Q E507K;A570G;M747Q (UniProt P19821)
Taq pol H639F H639F = Taq pol H639F H639F (UniProt P19821)
Taq pol E507D E507D = Taq pol E507D E507D (UniProt P19821)
[21] = biological target: Taq pol D578N-V783I D578N;V783I (UniProt P19821)
Taq pol H639Y H639Y = Taq pol H639Y H639Y (UniProt P19821)
Taq pol E507Q E507Q = Taq pol E507Q E507Q (UniProt P19821)
Taq pol F667A F667A = Taq pol F667A F667A (UniProt P19821)

Sequence “GCTATGCGTGAGCGCTTTTGCGCTCACGCATAGC [H-Kd hairpin]” has a Kd (Taq pol E708D E708D) of 4.51 nM, a Kd [1] of 10.3 nM and a Kd (Taq pol R660V R660V) of 6.21 nM. For the same sequence, the Kd (Taq pol S515F S515F) was 211 nM, the Kd (Taq pol F667Y F667Y) was 11.7 nM and the Kd [2] was over 200 nM. For the same sequence, the Kd [3] was 0.8 nM, the Kd [4] was 13.8 nM and the Kd [5] was 14.4 nM. It also gave a Kd (Taq pol E507K E507K) of 3.38 nM, a Kd [6] of 14.1 nM and a Kd (Taq pol D578N D578N) of 4.26 nM. The Kd (Taq pol M747Q M747Q) was 4.41 nM, the Kd [7] was 2.91 nM and the Kd [8] was 0.79 nM. The Kd (Taq pol E708L E708L) was 6.82 nM, the Kd [9] was 1.69 nM and the Kd (Taq pol D578K D578K) was 4.2 nM. For the same sequence, the Kd (Taq pol M747D M747D) was 29.6 nM, the Kd [10] was 0.96 nM and the Kd [11] was 4.33 nM. It also gave a Kd [12] of 3.29 nM, a Kd (Taq pol H639A H639A) of 8.14 nM and a Kd [13] of 6.29 nM. It also gave a Kd [14] of 4.33 nM, a Kd (Taq pol I707L I707L) of 8.54 nM and a Kd [15] of 1.93 nM. The Kd (Taq pol E626K E626K) was 5.74 nM, the Kd [16] was 0.51 nM and the Kd (Taq pol S515D S515D) was 80.7 nM. It also gave a Kd [17] of 1.17 nM, a Kd (Taq pol R660S R660S) of 10.6 nM and a Kd (Taq pol WT) of 6.19 nM. It also gave a Kd [18] of 1.53 nM, a Kd (Taq pol S515N S515N) of 6.71 nM and a Kd (Taq pol M747E M747E) of 25.5 nM. The Kd (Taq pol D732N D732N) was 2.6 nM, the Kd [19] was 1.07 nM and the Kd (Taq pol F667M F667M) was 8.79 nM. For the same sequence, the Kd (Taq pol D578W D578W) was 4.99 nM, the Kd [20] was 5.15 nM and the Kd (Taq pol H639F H639F) was 6.55 nM. The Kd (Taq pol E507D E507D) was 21.4 nM, the Kd [21] was 2.19 nM and the Kd (Taq pol H639Y H639Y) was 7.46 nM. The Kd (Taq pol E507Q E507Q) was 4.78 nM and the Kd (Taq pol F667A F667A) was 11.1 nM.

From publication PMC11666352
